# Experimental data from US20170368208A1, “CANCER IMAGING AGENT” (ENDOCYTE, INC., priority 2015, published 2017).
# *1 amine or outer side, *2 acyl side, *3 side chain or, on linkers, in order; H or OH if unused. Where a SMILES comes first, the peptide text is derived from it. Side-chain parts run from the residue outwards. [ ]: non-standard residue; d: D form. ξ: configuration not given here. γGlu = O=C(O)[C@H](CCC(=O)[*:2])N[*:1]; ξE = NC(CCC(=O)O)C(=O)O; Dap = NC[C@H](N)C(=O)O; Aoc = NCCCCCCCC(=O)O; CO = O=C([*:1])[*:2]
# Test: Radiochemical purity and stability of 99mTc-Compound II after room temperature labelling of kit formulations (radio-HPLC)
# Format: physicochemical
# Conditions: 0.1 mg tin chloride
# Procedure: A Compound II kit vial from Example 2 was removed from the refrigerator and allowed to warm to room temperature (17-27° C.) for 15-30 min. The vial was put into a suitable radioactive shielding container. One to Two milliliter (≦50 mCi) of ^99mTc pertechnetate injection was added to the vial using a lead shielded syringe. Before removing the syringe from the vial, equal volume of headspace was withdrawn in order to normalize the pressure inside the vial. The vial was gently swirled to completely dissolve the powder and then allowed to stand at ambient temperature (17-27° C.) for 15 minutes. 5-6 mL of 0.9% sodium chloride injection, USP, was then added to the vial. The labeled solution was stored at room temperature (17-27° C.) and used within 6 hours of preparation. The Radio-HPLC system used for the following experiment consisted of a Waters 600 intelligent pump, a Bioscan Flow-Count radiodetector, and a Waters Nova-Pak C18 (3.9×150 mm) column, using Laura v1.5 radiochromatogram software. 1-5 μL of the ^99mTc-Compound II sample was injected into the HPLC and eluted with an aqueous mobile phase 0.1% trifluoroacetic acid in water (A) and Acetonitrile (B) at a linear gradient of 25% B to 35% B over 20 minutes at a flow rate of 1 mL/min. […] The radiochemical purity of ^99mTc-Compound II was calculated as follows: Radiochemical purity=isomer A %+isomer B % (FIG. 1) Using the methods described herein, Compound II was subjected to room temperature labelling at varying pH. Using the methods described herein, Compound II was subjected to room temperature labelling with varying amounts of EDTA. Using the methods described herein, Compound II was subjected to room temperature labelling with varying amounts of sodium gluconate.
compound,measurement,setting,value
N[C@@H](CNC(=O)[C@H](Cc1ccccc1)NC(=O)[C@H](Cc1ccccc1)NC(=O)CCCCCCCNC(=O)CC[C@H](NC(=O)NC(CCC(=O)O)C(=O)O)C(=O)O)C(=O)N[C@@H](CC(=O)O)C(=O)N[C@@H](CS)C(=O)O (stereo partly drawn) [EC0652] (H-[Dap]([Phe-Phe-Aoc-γGlu-CO-ξE])-Asp-Cys-OH),RCP (%) Time (6 Hr),"kit 0.1 mg EC0652, 1 mg sodium gluconate, 0.3 mg EDTA, pH 6.8, 6 Hr",91.7%
same,RCP (%) Time (6 Hr),"kit 0.1 mg EC0652, 20 mg sodium gluconate, 0.3 mg EDTA, pH 6.8, 6 Hr",97.9%
same,RCP (%) Time (0 Hr),"kit 0.1 mg EC0652, 25 mg sodium gluconate, 0 mg EDTA, pH 6.8, 0 Hr",85.37%
same,RCP (%) Time (6 Hr),"kit 0.1 mg EC0652, 25 mg sodium gluconate, 0 mg EDTA, pH 6.8, 6 Hr",88.06%
same,RCP (%) Time (0 Hr),"kit 0.1 mg EC0652, 25 mg sodium gluconate, 0.005 mg EDTA, pH 6.8, 0 Hr",83.69%
same,RCP (%) Time (6 Hr),"kit 0.1 mg EC0652, 25 mg sodium gluconate, 0.005 mg EDTA, pH 6.8, 6 Hr",74.46%
same,RCP (%) Time (0 Hr),"kit 0.1 mg EC0652, 25 mg sodium gluconate, 0.01 mg EDTA, pH 6.8, 0 Hr",85.92%
same,RCP (%) Time (6 Hr),"kit 0.1 mg EC0652, 25 mg sodium gluconate, 0.01 mg EDTA, pH 6.8, 6 Hr",94.03%
same,RCP (%) Time (0 Hr),"kit 0.1 mg EC0652, 25 mg sodium gluconate, 0.1 mg EDTA, pH 6.8, 0 Hr",95.77%
same,RCP (%) Time (6 Hr),"kit 0.1 mg EC0652, 25 mg sodium gluconate, 0.1 mg EDTA, pH 6.8, 6 Hr",95.33%
same,RCP (%) Time (0 Hr),"kit 0.1 mg EC0652, 25 mg sodium gluconate, 0.30 mg EDTA, pH 6.8, 0 Hr (Table 5)",97.02%
same,RCP (%) Time (6 Hr),"kit 0.1 mg EC0652, 25 mg sodium gluconate, 0.30 mg EDTA, pH 6.8, 6 Hr (Table 5)",97.49%
same,RCP (%) Time (6 Hr),"kit 0.1 mg EC0652, 25 mg sodium gluconate, 0.3 mg EDTA, pH 6.8, 6 Hr (Table 6)",98.5%
same,Radiochemical Purity (%) Time (0 Hr),"kit 0.1 mg EC0652, 25 mg sodium gluconate, 0.3 mg EDTA, pH 5.1, 0 Hr after room temperature 99mTc labelling",97.7%
same,Radiochemical Purity (%) Time (6 Hr),"kit 0.1 mg EC0652, 25 mg sodium gluconate, 0.3 mg EDTA, pH 5.1, 6 Hr after room temperature 99mTc labelling",85.5%
same,Radiochemical Purity (%) Time (0 Hr),"kit 0.1 mg EC0652, 25 mg sodium gluconate, 0.3 mg EDTA, pH 6.2, 0 Hr",96.8%
same,Radiochemical Purity (%) Time (6 Hr),"kit 0.1 mg EC0652, 25 mg sodium gluconate, 0.3 mg EDTA, pH 6.2, 6 Hr",94.1%
same,Radiochemical Purity (%) Time (0 Hr),"kit 0.1 mg EC0652, 25 mg sodium gluconate, 0.3 mg EDTA, pH 6.8, 0 Hr (Table 3)",97.4%
same,Radiochemical Purity (%) Time (6 Hr),"kit 0.1 mg EC0652, 25 mg sodium gluconate, 0.3 mg EDTA, pH 6.8, 6 Hr (Table 3)",94.8%
same,Radiochemical Purity (%) Time (0 Hr),"kit 0.1 mg EC0652, 25 mg sodium gluconate, 0.3 mg EDTA, pH 7.4, 0 Hr",96.5%
same,Radiochemical Purity (%) Time (6 Hr),"kit 0.1 mg EC0652, 25 mg sodium gluconate, 0.3 mg EDTA, pH 7.4, 6 Hr",96.0%
same,RCP (%) Time (0 Hr),"kit 0.1 mg EC0652, 25 mg sodium gluconate, 1.0 mg EDTA, pH 6.8, 0 Hr",96.69%
same,RCP (%) Time (6 Hr),"kit 0.1 mg EC0652, 25 mg sodium gluconate, 1.0 mg EDTA, pH 6.8, 6 Hr",96.87%
same,RCP (%) Time (6 Hr),"kit 0.1 mg EC0652, 30 mg sodium gluconate, 0.3 mg EDTA, pH 6.8, 6 Hr",97.0%
same,RCP (%) Time (6 Hr),"kit 0.1 mg EC0652, 50 mg sodium gluconate, 0.3 mg EDTA, pH 6.8, 6 Hr",98.0%
